Measurements taken from patent publication US20050100554A1 (published 2005).

T1: PCDH1 (human, UniProt Q08174 58-1060)
T1 construct: also called cbe_4269156
T1 sequence: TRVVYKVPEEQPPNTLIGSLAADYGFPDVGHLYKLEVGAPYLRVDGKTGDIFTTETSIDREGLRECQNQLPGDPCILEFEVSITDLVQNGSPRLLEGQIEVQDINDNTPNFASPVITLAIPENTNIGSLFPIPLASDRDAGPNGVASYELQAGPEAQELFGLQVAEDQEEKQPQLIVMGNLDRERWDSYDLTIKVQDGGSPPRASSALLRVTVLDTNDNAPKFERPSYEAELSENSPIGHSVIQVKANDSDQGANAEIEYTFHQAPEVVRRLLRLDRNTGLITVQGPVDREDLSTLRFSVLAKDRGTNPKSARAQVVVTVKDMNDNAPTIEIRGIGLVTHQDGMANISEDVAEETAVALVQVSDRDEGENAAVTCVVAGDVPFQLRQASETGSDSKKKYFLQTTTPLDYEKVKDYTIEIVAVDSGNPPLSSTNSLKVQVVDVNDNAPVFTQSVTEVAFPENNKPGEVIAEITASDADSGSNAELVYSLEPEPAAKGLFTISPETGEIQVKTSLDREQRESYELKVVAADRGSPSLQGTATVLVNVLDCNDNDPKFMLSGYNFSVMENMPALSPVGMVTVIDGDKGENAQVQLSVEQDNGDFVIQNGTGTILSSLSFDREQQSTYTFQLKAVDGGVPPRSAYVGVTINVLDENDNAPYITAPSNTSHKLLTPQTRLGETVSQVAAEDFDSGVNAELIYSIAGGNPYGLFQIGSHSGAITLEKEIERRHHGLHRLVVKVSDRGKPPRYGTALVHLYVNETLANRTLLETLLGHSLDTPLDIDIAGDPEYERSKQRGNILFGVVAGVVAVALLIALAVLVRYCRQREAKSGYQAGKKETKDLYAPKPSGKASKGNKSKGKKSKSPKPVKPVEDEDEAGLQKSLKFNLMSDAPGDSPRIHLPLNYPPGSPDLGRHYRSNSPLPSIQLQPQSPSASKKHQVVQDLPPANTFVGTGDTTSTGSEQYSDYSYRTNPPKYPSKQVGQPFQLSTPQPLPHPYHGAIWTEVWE

T2: PEST-containing nuclear protein (human, UniProt Q8WW12 2-178)
T2 construct: also called pcnp; PCNP
T2 sequence: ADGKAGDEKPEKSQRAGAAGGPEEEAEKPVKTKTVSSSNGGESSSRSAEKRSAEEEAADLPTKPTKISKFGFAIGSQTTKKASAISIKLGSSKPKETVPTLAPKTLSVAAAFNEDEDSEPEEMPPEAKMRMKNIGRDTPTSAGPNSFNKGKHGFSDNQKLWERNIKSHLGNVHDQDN

T3: RABIF (human, UniProt P47224 1-123)
T3 construct: also called cbe_3472582
T3 sequence: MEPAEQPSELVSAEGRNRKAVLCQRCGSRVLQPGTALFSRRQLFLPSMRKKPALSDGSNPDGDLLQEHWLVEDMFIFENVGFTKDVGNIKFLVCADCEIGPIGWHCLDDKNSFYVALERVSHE

T4: PTPN21 (human, UniProt Q16825 1-1174)
T4 construct: also called cbe_4260642
T4 sequence: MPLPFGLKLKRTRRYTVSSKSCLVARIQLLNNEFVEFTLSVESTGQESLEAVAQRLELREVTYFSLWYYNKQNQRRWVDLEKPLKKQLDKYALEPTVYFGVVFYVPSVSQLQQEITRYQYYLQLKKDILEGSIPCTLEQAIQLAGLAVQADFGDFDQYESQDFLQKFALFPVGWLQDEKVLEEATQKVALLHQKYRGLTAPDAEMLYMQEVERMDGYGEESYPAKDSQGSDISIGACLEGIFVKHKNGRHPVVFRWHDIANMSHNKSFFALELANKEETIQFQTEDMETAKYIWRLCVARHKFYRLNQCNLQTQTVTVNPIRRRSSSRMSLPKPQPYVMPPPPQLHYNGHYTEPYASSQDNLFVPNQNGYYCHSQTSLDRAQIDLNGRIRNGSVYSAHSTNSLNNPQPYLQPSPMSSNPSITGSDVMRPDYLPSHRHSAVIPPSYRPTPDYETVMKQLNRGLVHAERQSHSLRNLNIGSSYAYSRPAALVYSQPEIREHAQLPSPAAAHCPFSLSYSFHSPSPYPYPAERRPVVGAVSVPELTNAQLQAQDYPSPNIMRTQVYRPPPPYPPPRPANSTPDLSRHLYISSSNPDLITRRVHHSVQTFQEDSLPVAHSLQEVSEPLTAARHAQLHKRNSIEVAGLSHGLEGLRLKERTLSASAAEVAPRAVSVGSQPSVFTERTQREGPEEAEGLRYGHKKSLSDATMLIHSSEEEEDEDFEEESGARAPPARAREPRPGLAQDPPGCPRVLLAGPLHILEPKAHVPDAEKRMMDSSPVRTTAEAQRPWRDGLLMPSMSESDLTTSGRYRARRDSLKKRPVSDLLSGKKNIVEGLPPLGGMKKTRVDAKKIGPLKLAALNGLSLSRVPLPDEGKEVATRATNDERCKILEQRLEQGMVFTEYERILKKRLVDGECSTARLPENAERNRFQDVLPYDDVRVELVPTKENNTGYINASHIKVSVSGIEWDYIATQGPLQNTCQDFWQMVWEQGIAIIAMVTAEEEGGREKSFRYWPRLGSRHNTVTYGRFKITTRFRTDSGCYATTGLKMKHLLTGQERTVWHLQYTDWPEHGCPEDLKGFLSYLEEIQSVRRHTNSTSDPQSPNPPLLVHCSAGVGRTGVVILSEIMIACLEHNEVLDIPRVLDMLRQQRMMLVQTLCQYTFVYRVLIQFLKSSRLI

B1: hypothetical protein FLJ20343 (other)
chain: MAQPHTTSVPYFARSPAPPPPSRSGAPPQPPATLRPSRRRTRPPRPADRRDAPADCAYLWRILTPRRGRARRSDVGARHRACGRRDVLLSRQGPANPEGARRVVGGQERVWPAVRRGRGGSMFRLLSWSLGRGFLRAAGRRCRGCSARLLPGLAGGPGPEVQVPPSRVAPHGRGPGLLPLLAALAWFSRPAAAEEEEQQGADGAAAEDGADEAEAEIIQLLKRAKLSIMKDEPEEAELILHDALRLAYQTDNKKAITYTYDLMANLAFIRGQLENAEQLFKATMSYLLGGGMKQEDNAIIEISLKLASIYAAQNRQEFAVAGYEFCISTLEEKIEREKELAEDIMSVEEKANTHLLLGMCLDACARYLLFSKQPSQAQRMYEKALQISEEIQGERHPQTIVLMSDLATTLDAQGRFDEAYIYMQRASDLARQINHPELHMVLSNLAAVLMHRERYTQAKEIYQEALKQAKLKKDEISVQHIREELAELSKKSRPLTNSVKL
notes: also called cbe_3880186
B2: gbh_af252829 (other)
chain: MGKKQNRKTGNSKTQSTSPPPKERSSSPATDQSWMENDFDELREEGFRRSNYSELREDIQTKGKEVENFEKNLEECITRITNTEKCLKELMELKTKARELREECRSLRSQCDQLEERVSAMEDEMNEMKQEGKFREKRIKRNEQSLQEIWDYVKRPNLRLIGVPESDAENGTKLENTLQDIIQETFPNLARQANVQIQEIQRTPQRYSSRRATPRHIIVRFTKVEMKEKMLRAAREKGRVTLKGKPIRLTADLSAETLQARREWGPILNILKEKNFQPRISYPAKLSFISEGEIKYFTDKQMLTDFVTSRPALKELLKEALNMERNNRYQPLQNHAKM
notes: also called Homo sapiens chromosome 8 clone BAC 495D4 map 8q24; cbe_3454406
B3: HPV 16 E1-E4 (other)
chain: MADPAAATKYPLLKLLGSTWPTTPPRPIPKPSPWAPKKHRRLSSDQDQSQTPETPATPLSCCTETQWTVLQSSLHLTAHTKDGLTVIVTLHP
notes: also called cbe_251059
B4: proteosome (prosome, macropain) subunit, beta type, 3 (other)
chain: SIMSYNGGAVMAMKGKNCVAIAADRRFGIQAQLVTTDFQKIFPMGDRLYIGLAGLATDVQTVAQRLKFRLNLYELKEGRQIKPYTLMSMVANLLYEKRFGPYYTEPVIAGLDPKTFKPFICSLDLIGCPMVTDDFVVSGTCAEQMYGMCESLWEPNMDPDHLFETISQAMLNAVDRDAVSGMGVIVHIIEKDKITTRTLKARMD
notes: also called PSMB3; cbe_3842044
B5: Human papillomavirus 11 E1 (other)
chain: MADDSGTENEGSGCTGWFMVEAIVEHTTGTQISEDEEEEVEDSGYDMVDFIDDRHITQNSVEAQALFNRQEADAHYATVQDLKRKYLGSPYVSPISNVANAVESEISPRLDAIKLTTQPKKVKRRLFETRELTDSGYGYSEVEAATQVEKHGDPENGGDGQERDTGRDIEGEGVEHREAEAVDDSTREHADTSGILELLKCKDIRSTLHGKFKDCFGLSFVDLIRPFKSDRTTCADWVVAGFGIHHSIADAFQKLIEPLSLYAHIQWLTNAWGMVLLVLIRFKVNKSRCTVARTLGTLLNIPENHMLIEPPKIQSGVRALYWFRTGISNASTVIGEAPEWITRQTVIEHSLADSQFKLTEMVQWAYDNDICEESEIAFEYAQRGDFDSNARAFLNSNMQAKYVKDCAIMCRHYKHAEMKKMSIKQWIKYRGTKVDSVGNWKPIVQFLRHQNIEFIPFLSKLKLWLHGTPKKNCIAIVGPPDTGKSCFCMSLIKFLGGTVISYVNSCSHFWLQPLTDAKVALLDDATQPCWTYMDTYMRNLLDGNPMSIDRKHRALTLIKCPPLLVTSNIDISKEEKYKYLHSRVTTFTFPNPFPFDRNGNAVYELSDANWKCFFERLSSSLDIEDSEDEEDGSNSQAFRCVPGSVVRTL
notes: also called HPV 11 E1; cbe_251663
B6: Human papillomavirus 11 E7 (other)
chain: MHGRLVTLKDIVLDLQPPDPVGLHCYEQLEDSSEDEVDKVDKQDAQPLTQHYQILTCCCGCDSNVRLVVECTDGDIRQLQDLLLGTLNIVCPICAPKP
notes: also called HPV 11 E7; cbe_250834

How the values were obtained:
HPV 16 E1-E4 = target: B3; assay: Y2H; INT ID 141
[1] = target: B6; assay: Y2H; INT ID 38
PCDH1 = target: T1, PCDH1; assay: Y2H; INT ID 142
[2] = target: T2, PEST-containing nuclear protein; assay: Y2H; INT ID 140
RABIF = target: T3, RABIF; assay: Y2H; INT ID 139
[3] = target: B5; assay: Y2H; INT ID 51
DKFZP434I1735 protein = target: T5, DKFZP434I1735 protein (human, UniProt Q86XA9 451-2040); assay: Y2H; INT ID 50
T5 construct: also called cbe_3643627

[4] = target: T6, signal-induced proliferation-associated 1 like 1 (human, UniProt O43166 1-1804); assay: Y2H; INT ID 37
T6 construct: also called KIAA0440; cbe_3056756

ITGB4 = target: T7, ITGB4 (human, UniProt P16144 28-1822); assay: Y2H; INT ID 49
T7 construct: also called cbe_4280774

PTPN21 = target: T4, PTPN21; assay: Y2H; INT ID 41

T6 sequence (O43166 whole entry): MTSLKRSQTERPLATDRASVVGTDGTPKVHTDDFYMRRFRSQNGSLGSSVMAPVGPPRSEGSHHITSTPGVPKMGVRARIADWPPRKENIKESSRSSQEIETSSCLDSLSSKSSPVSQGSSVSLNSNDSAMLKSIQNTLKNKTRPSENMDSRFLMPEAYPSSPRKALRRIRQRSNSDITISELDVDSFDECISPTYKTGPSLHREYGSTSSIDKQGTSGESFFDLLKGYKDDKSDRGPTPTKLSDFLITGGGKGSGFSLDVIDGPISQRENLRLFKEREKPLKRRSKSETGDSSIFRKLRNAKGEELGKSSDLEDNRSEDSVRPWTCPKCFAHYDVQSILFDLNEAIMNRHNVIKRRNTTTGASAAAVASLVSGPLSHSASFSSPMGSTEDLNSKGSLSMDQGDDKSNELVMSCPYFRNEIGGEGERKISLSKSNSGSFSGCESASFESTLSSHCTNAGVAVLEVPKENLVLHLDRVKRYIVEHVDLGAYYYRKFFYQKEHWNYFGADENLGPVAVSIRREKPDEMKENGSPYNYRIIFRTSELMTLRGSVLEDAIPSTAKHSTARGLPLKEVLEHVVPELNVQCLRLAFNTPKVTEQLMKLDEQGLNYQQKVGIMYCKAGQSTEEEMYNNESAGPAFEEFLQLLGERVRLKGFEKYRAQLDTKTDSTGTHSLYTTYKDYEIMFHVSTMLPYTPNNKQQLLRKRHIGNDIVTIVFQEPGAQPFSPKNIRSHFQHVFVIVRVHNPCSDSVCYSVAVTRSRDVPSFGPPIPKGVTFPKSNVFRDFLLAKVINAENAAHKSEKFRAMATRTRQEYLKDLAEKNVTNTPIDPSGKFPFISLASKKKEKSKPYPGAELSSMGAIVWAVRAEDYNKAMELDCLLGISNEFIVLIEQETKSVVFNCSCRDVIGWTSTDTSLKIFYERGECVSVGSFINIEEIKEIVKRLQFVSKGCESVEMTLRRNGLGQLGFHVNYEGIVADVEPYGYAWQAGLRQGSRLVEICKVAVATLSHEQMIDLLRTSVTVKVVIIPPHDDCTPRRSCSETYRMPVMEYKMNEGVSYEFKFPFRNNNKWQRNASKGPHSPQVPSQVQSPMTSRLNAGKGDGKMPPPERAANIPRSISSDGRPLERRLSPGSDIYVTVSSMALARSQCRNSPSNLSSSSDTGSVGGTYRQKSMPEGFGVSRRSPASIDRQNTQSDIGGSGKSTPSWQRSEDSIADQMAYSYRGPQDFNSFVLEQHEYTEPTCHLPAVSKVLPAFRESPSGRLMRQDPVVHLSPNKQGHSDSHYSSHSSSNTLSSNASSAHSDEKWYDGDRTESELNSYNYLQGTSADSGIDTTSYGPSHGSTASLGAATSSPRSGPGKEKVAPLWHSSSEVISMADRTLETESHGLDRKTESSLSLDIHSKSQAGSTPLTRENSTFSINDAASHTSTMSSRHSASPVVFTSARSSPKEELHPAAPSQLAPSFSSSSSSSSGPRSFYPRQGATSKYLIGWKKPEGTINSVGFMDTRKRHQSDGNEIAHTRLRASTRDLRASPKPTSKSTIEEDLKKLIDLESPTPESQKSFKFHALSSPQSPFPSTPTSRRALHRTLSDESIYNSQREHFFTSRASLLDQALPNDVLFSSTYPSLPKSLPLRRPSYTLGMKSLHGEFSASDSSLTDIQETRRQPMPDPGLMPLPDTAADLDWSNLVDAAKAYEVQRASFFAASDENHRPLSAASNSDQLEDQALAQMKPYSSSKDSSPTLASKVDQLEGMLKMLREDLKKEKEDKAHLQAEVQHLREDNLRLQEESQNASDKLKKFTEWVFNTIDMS
T7 sequence (P16144 28-1822 limits assumed): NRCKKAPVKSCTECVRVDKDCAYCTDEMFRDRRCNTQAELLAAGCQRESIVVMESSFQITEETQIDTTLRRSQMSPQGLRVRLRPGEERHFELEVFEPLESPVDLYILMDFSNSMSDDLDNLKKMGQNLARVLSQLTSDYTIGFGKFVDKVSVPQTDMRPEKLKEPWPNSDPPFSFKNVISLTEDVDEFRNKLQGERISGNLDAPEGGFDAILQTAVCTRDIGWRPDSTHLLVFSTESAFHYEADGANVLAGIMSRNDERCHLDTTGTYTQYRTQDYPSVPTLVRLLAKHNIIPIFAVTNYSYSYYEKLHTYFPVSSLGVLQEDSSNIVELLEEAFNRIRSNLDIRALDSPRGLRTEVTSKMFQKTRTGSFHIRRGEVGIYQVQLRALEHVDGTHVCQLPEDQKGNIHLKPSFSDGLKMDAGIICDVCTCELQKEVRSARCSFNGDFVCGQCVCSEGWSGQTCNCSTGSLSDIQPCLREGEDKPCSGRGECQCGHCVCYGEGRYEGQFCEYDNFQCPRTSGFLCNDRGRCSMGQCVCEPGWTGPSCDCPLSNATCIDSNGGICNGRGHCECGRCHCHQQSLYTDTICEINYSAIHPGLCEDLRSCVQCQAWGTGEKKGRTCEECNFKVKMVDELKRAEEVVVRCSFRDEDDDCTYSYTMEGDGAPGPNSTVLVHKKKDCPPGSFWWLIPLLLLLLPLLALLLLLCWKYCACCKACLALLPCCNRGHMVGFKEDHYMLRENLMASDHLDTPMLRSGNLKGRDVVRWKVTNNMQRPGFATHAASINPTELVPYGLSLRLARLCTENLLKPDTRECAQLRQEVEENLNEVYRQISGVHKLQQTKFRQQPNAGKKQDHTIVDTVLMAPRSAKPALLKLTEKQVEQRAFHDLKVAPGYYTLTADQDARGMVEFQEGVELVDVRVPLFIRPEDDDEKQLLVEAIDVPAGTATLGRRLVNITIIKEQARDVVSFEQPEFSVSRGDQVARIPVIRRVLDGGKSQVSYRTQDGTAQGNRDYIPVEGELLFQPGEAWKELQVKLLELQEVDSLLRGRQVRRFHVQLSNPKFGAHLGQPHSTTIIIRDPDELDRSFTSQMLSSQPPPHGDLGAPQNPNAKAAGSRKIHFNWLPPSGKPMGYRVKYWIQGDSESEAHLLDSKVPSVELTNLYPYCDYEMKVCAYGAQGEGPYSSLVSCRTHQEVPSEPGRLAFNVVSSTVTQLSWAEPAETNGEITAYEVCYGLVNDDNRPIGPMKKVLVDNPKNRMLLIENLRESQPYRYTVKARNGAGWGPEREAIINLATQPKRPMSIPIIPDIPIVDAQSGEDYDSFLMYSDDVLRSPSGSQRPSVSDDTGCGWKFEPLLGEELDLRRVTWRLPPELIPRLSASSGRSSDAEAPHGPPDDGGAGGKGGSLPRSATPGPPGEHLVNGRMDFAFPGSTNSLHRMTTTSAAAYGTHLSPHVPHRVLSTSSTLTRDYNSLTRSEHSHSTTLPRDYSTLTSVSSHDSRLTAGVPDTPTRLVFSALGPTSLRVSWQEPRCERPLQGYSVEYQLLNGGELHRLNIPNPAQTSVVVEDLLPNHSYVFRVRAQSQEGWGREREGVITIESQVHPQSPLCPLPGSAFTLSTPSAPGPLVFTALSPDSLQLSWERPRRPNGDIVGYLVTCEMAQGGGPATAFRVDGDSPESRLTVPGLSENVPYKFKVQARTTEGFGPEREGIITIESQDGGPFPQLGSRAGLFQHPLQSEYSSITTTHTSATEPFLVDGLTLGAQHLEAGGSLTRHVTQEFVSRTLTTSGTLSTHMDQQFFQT

B1: binds (HPV 16 E1-E4).

B2: binds [1].

B3: binds (PCDH1); binds [2]; binds (RABIF).

B4: binds [3].

B5: binds (DKFZP434I1735 protein).

B6: binds [4]; binds (ITGB4); binds (PTPN21).
